Assay results as given in article PMC10831263 (The Journal of Biological Chemistry, 2023).

Tests used:
GST-HERC2 (2540–2700th) = target: T1, GST-HERC2 (2540–2700th) (human, UniProt O95714 2540-2700); assay: pull-down; GST pull-down of HERC2 with Fe-S-bound NCOA4 (383–522nd): freshly purified or reconstituted; conditions: both partners purified
T1 construct: also called HECT and RLD domains-containing E3 ubiquitin protein ligase 2; not shown: GST, N-terminal, kept
T1 sequence (looked up): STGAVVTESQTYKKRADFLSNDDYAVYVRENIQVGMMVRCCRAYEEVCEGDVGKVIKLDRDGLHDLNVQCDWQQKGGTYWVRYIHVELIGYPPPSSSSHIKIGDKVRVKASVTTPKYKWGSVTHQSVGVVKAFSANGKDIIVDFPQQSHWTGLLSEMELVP

GST-tagged FTH = target: T2, GST-tagged FTH (human, UniProt P02794 1-183); assay: pull-down; His-pulldown; His-tagged NCOA4 (383–522nd) WT or mutants and GST-tagged FTH, each expressed in E. coli and purified; read by immunoblotting; conditions: both partners purified
T2 construct: ferritin heavy chain 1 (FTH), human; also called GST-FTH; ferritin heavy chain 1; not shown: GST, N-terminal, kept
T2 sequence (P02794 whole entry): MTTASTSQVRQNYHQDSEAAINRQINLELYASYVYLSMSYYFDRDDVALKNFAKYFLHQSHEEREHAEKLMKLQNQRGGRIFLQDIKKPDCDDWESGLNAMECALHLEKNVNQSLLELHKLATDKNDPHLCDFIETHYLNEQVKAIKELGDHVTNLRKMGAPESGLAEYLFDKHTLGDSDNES

[1] = target: the molecule itself; assay: nonreducing gel electrophoresis; purified his-tagged NCOA4 (383–522nd) WT or mutants on a nonreducing gel, with or without β-ME (10 mM) or DTT (5 mM); the reductants converted the dimer into monomers

B1: his-tagged NCOA4 (383–522nd) recombinant protein, WT (domain or fragment, human, UniProt Q13772-1 383-522, looked up)
chain: SMVTEDWLVQNHQDPCKVEEVCRANEPCTSFAECVCDENCEKEALYKWLLKKEGKDKNGMPVEPKPEPEKHKDSLNMWLCPRKEVIEQTKAPKAMTPSRIADSFQVIKNSPLSEWLIRPPYKEGSPKEVPGTEDRAGKQK
notes: Expressed from pQE80L; also called purified NCOA4; not shown: His6, N-terminal, kept
GST-HERC2 (2540–2700th)
  binding result: binds
GST-tagged FTH
  binding result: binds

B2: his-tagged NCOA4 (383–522nd) C462A (domain or fragment, human, UniProt Q13772-1 383-522, looked up)
chain: SMVTEDWLVQNHQDPCKVEEVCRANEPCTSFAECVCDENCEKEALYKWLLKKEGKDKNGMPVEPKPEPEKHKDSLNMWLAPRKEVIEQTKAPKAMTPSRIADSFQVIKNSPLSEWLIRPPYKEGSPKEVPGTEDRAGKQK
[1]
  binding result: binds

B3: his-tagged NCOA4 (383–522nd) C422A (domain or fragment, human, UniProt Q13772-1 383-522, looked up)
chain: SMVTEDWLVQNHQDPCKVEEVCRANEPCTSFAECVCDENAEKEALYKWLLKKEGKDKNGMPVEPKPEPEKHKDSLNMWLCPRKEVIEQTKAPKAMTPSRIADSFQVIKNSPLSEWLIRPPYKEGSPKEVPGTEDRAGKQK
[1]
  binding result: binds

B4: his-tagged NCOA4 (383–522nd) C404A (domain or fragment, human, UniProt Q13772-1 383-522, looked up)
chain: SMVTEDWLVQNHQDPCKVEEVARANEPCTSFAECVCDENCEKEALYKWLLKKEGKDKNGMPVEPKPEPEKHKDSLNMWLCPRKEVIEQTKAPKAMTPSRIADSFQVIKNSPLSEWLIRPPYKEGSPKEVPGTEDRAGKQK
[1]
  binding result: binds

B5: his-tagged NCOA4 (383–522nd) C416A (domain or fragment, human, UniProt Q13772-1 383-522, looked up)
chain: SMVTEDWLVQNHQDPCKVEEVCRANEPCTSFAEAVCDENCEKEALYKWLLKKEGKDKNGMPVEPKPEPEKHKDSLNMWLCPRKEVIEQTKAPKAMTPSRIADSFQVIKNSPLSEWLIRPPYKEGSPKEVPGTEDRAGKQK
[1]
  binding result: binds

B6: his-tagged NCOA4 (383–522nd) C410A (domain or fragment, human, UniProt Q13772-1 383-522, looked up)
chain: SMVTEDWLVQNHQDPCKVEEVCRANEPATSFAECVCDENCEKEALYKWLLKKEGKDKNGMPVEPKPEPEKHKDSLNMWLCPRKEVIEQTKAPKAMTPSRIADSFQVIKNSPLSEWLIRPPYKEGSPKEVPGTEDRAGKQK
[1]
  binding result: binds

B7: his-tagged NCOA4 (383–522nd) C418A (domain or fragment, human, UniProt Q13772-1 383-522, looked up)
chain: SMVTEDWLVQNHQDPCKVEEVCRANEPCTSFAECVADENCEKEALYKWLLKKEGKDKNGMPVEPKPEPEKHKDSLNMWLCPRKEVIEQTKAPKAMTPSRIADSFQVIKNSPLSEWLIRPPYKEGSPKEVPGTEDRAGKQK
[1]
  binding result: binds

B8: his-tagged NCOA4 (383–522nd) C398S (domain or fragment, human, UniProt Q13772-1 383-522, looked up)
chain: SMVTEDWLVQNHQDPSKVEEVCRANEPCTSFAECVCDENCEKEALYKWLLKKEGKDKNGMPVEPKPEPEKHKDSLNMWLCPRKEVIEQTKAPKAMTPSRIADSFQVIKNSPLSEWLIRPPYKEGSPKEVPGTEDRAGKQK
notes: C398A was insoluble, so C398S was made in its place
[1]
  binding result: binds

B9: his-tagged NCOA4 (383–522nd) 4C > A (domain or fragment, human, UniProt Q13772-1 383-522, looked up)
chain: SMVTEDWLVQNHQDPCKVEEVARANEPATSFAEAVCDENAEKEALYKWLLKKEGKDKNGMPVEPKPEPEKHKDSLNMWLCPRKEVIEQTKAPKAMTPSRIADSFQVIKNSPLSEWLIRPPYKEGSPKEVPGTEDRAGKQK
notes: also called four cysteine residues substitution by alanine; not shown: His6, N-terminal, kept
GST-tagged FTH
  binding result: binds
